Data on 2 molecules can be found in patent publication US20200308299A1, “ANTI-GPC-1 ANTIBODY” (National University Corporation Kochi University, priority 2017, published 2020).

Series [1] deals with TE8 cells. Put plainly: ADC assay combining anti-GPC-1 antibody and MMAF binding secondary antibody, TE8 cells. In kind it is cell-based. The settings on record: primary antibody plus MMAF secondary antibody.
Another series concerns TE14 cell strain. Put plainly: In vivo antitumor effect of unlabeled anti-GPC1 antibody, TE14 graft in SCID mice. More on the design: species or system mouse. As to the method:
Specifically, 2.0×10^6 cells of TE14 cell strain were subcutaneously grafted into female SCID mice (6 week old, n=9). When the tumor size reached about 100 mm^3 on about day 10 to 14 after grafting, administration of control mouse IgG2a (sigma, M7769) and anti-GPC1 antibody 01a033 each at 10 mg/kg was started, which were intraperitoneally administered on day 0, day 3, day 7, day 10, day 14, and day 17, with the day starting the administration considered 0 day. The tumor volume was measured on day 0, day 3, day 7, day 10, day 14, day 17, day 21, day 24, day 28, and day 31.

A further series deals with TE14 cells. As to the kind of experiment: ADC assay combining anti-GPC-1 antibody and MMAF binding secondary antibody, TE14 cells. In kind it is cell-based. In short, it runs like this:
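TE14 […] cells (2000/well, RPMI1640 + 10% FBS) exposed to anti-GPC1 primary antibody (final 0–1.0 nM) plus 2 μg/ml MMAF-conjugated anti-mouse Fc Fab secondary for 6 days at 37° C, 5% CO2. Viability measured by CellTiter-Glo ATP luminescence.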

Series [2] in a line: Single dose safety test on GPC1 ADC in C57BL/6J mice.
Experimental: A single dose (1 ml) of control PBS, control ADC (50 mg/kg), anti-GPC1 ADC (3 mg/kg), anti-GPC1 ADC (15 mg/kg), and anti-GPC1 ADC (50 mg/kg) was intraperitoneally administered on day 1 to a group of 4 male and 4 female C57BL/6J mice (8W). The mice were dissected after 7 days from administration.
*Blood collection (Blood cell count, biochemical test)
The subject of series [3] is TE8 cells. Put plainly: Internalization assay on GPC1 ADC (01a033), TE8 cells. In kind it is cell-based. The conditions noted are these: 0-24 h. As to the method:
Detection was performed on cells treated with GPC1 ADC (01a033) MMAF with anti-GPC1 mAb (biotin-labeled 02b006) and PE-labeled streptavidin.
TE8, HeLa, ME180, BxPC3, and T3M4 cell strains were detached and collected from a 10 cm plate using 0.02% EDTA. Cells were suspended in RPMI1640+10% FBS+100 U/ml penicillin+100 μg/ml streptomycin, and two 1.5 ml tubes were created at 1.0×10^6 cells/0.9 ml. To lower the internalization activity, the tubes were left standing on ice for 1 hour. 1 mg/ml of GPC1 ADC (01a033) MMAF was diluted to 24 μg/mL (160 nM) with ice-cooled RPMI1640+10% FBS+100 U/ml penicillin+100 μg/ml streptomycin. 100 μl of the ADC was added and suspended in the cell suspension and incubated on ice for 30 minutes to stain the antigens on the cell surface. After 30 minutes, the cell suspension was dispensed into 7 tubes each at 100 μl each. The cell suspension was separated into 4° C. incubation group and 37° C. incubation group in 14 tubes. The incubation times were 0.0 h, 1 h, 2 h, 3 h, 4 h, 6 h, 12 h, and 24 h. After reaching the incubation time, the cells were centrifuged at 1500 rpm at 4° C. for 5 minutes to remove the supernatant. The cells were washed with 100 μl of ice cooled PBS+0.2% BSA and subjected to centrifugation to wash the cells. Washing operation was performed three times in total. […]

The mark [4] stands for this setting: primary antibody plus MMAF secondary antibody.
Where [5] appears, read: single ip dose, high dose administration group, not GPC1-ADC specific.

B1: clone 01a033 (antibody)
heavy: QVQLKQSGPELVKPGASVKISCKASGYSFTGYYMHWVKQSPEKSLEWIGEINPSTGDTTYNQKFKAKATLTVDKSSSTAYMQLKSLTSEDSAVYYCAREKRDDGVFAYWGQGTLVTVSSAKTTAPSVYPLAPVCGDTTGSSVTLGCLVKGYFPEPVTLTWNSGSLSSGVHTFPAVLQSDLYTLSSSVTVTSSTWPSQSITCNVAHPASSTKVDKKIEPRGPTIKPCPPCKCPAPNLLGGPSVFIFPPKIKDVLMISLSPIVTCVVVDVSEDDPDVQISWFVNNVEVHTAQTQTHREDYNSTLRVVSALPIQHQDWMSGKEFKCKVNNKDLPAPIERTISKPKGSVRAPQVYVLPPPEEEMTKKQVTLTCMVTDFMPEDIYVEWTNNGKTELNYKNTEPVLDSDGSYFMYSKLRVEKKNWVERNSYSCSVVHEGLHNHHTTKSFSRTPGK
light: DIVMSQSPKSMSMSVGERVALSCKASENVGTYVSWYQQKPEQSPKLLIYGASNRYTGVPDRFTGSGSATDFTLTISSVQAEDLADYYCGQSYSYPLTFGAGTKLELKRADAAPTVSIFPPSSEQLTSGGASVVCFLNNFYPKDINVKWKIDGSERQNGVLNSWTDQDSKDSTYSMSSTLTLTKDEYERHNSYTCEATHKTSTSPIVKSFNRNEC
Turning to B1, in the series on TE8 cells [1], the “antitumor effect on TE8” value was “particularly potent antitumor effect”. Besides, the ADCC activity entry with TE14 cell strain (concluded from the lack of in vivo antitumor effect) is “does not have ADCC activity”. The “antitumor effect (tumor volume, tumor weight day 31)” value in the series on TE14 cell strain (unlabeled antibody 10 mg/kg ip day 0, 3, 7, 10, 14, 17) is “no antitumor effect”. In addition, the ADC activity entry in the series with TE14 cells (primary antibody plus Fab-aMFc-CL-MMAF secondary antibody 2 μg/ml, 6 days) is given as “highest ADC activity”. Besides, in the series with TE14 cells (setting [4]), the “EC50 values against TE14 cells” value is on record as “excellent EC50 values” and the “antitumor effect on TE14” value is “particularly potent antitumor effect”.

B2: GPC1 ADC (conjugate)
heavy: B1 heavy
light: B1 light
Turning to B2, the “toxicity from the results of the hematological test” value in series [2] (single ip dose) is “Significant toxicity due to ADC administration was not observed”. Also, in series [2] (single ip dose 50 mg/kg), the “anemia (hemoglobin)” value is given as “Mild anemia”. For the same molecule, in series [2] (single ip dose 3, 15, 50 mg/kg), the amylase entry is reported as “Specific abnormality was not observed” and the platelet count entry is given as “Abnormal platelet count specific to each group was not observed”. Moreover, in series [2] (single ip dose, groups other than 50 mg/kg (3, 15 mg/kg), 7 days), the “change in the body weight” value was “Significant change in the body weight was not observed”. Moreover, in series [2] (setting [5]), the “liver function (ALT)” value is listed as “An abnormality in the liver function was found” and the white blood cells entry is listed as “increase in the while blood cells was observed”. For the same molecule, the “residual amount of Glypican-1 on the cell surface” value with TE8 cells [3] (TE8, incubation at 4° C.) is reported as “hardly changed”. The “Glypican-1 remaining on the cell surface” value with TE8 cells [3] (TE8, incubation at 37° C.) is listed as “decreases with the passage of incubation time”.
